Test results taken from patent publication US20240270846A1 (published 2024).
Positions count from the first letter of the chain named.

B1: CE115HA000 H chain altered form N31G (antibody, human IgG1, kappa, L234A L235A, N297A, name in Kabat numbering)
heavy: QVQLVESGGGVVQPGRSLRLSCAASGFTFSGAWMHWVRQAPGKGLEWVAQIKAKSNNYATYYAESVKGRFTISRDDSKNSLYLQMNSLKTEDTAVYYCRYVHYGAYYGVDAWGQGTTVTVSSASTKGPSVFPLAPSSKSTSGGTAALGCLVKDYFPEPVTVSWNSGALTSGVHTFPAVLQSSGLYSLSSVVTVPSSSLGTQTYICNVNHKPSNTKVDKKVEPKSCDKTHTCPPCPAPEAAGGPSVFLFPPKPKDTLMISRTPEVTCVVVDVSHEDPEVKFNWYVDGVEVHNAKTKPREEQYASTYRVVSVLTVLHQDWLNGKEYKCKVSNKALPAPIEKTISKAKGQPREPQVYTLPPSRCELTKNQVSLSCAVKGFYPSDIAVEWESNGQPENNYKTTPPVLDSDGSFFLVSKLTVDKSRWQQGNVFSCSVMHEALHNHYTQKSLSLSPDYKDDDDK
chain: EPKSSDKTHTCPPCPAPELLGGPSVFLFPPKPKDTLMISRTPEVTCVVVDVSHEDPEVKFNWYVDGVEVHNAKTKPREEQYNSTYRVVSVLTVLHQDWLNGKEYKCKVSNKALPAPIEKTISKAKGQPREPQVCTLPPSRDELTKNQVSLWCLVKGFYPSDIAVEWESNGQPENNYKTTPPVLDSDGSFFLYSKLTVDKSRWQQGNVFSCSVMHEALHNRYTQKSLSLSP
light: DIVMTQSPLSLPVTPGEPASISCRSSQSLVHSNRNTYLHWYQQKPGQAPRLLIYKVSNRFSGVPDRFSGSGSGTDFTLKISRVEAEDVGVYYCGQGTQVPYTFGQGTKLEIKRTVAAPSVFIFPPSDEQLKSGTASVVCLLNNFYPREAKVQWKVDNALQSGNSQESVTEQDSKDSTYSLSSTLTLSKADYEKHKVYACEVTHQGLSSPVTKSFNRGEC
notes: one-arm antibody
B2: CE115HA000 H chain altered form N31H (antibody, human IgG1, kappa, L234A L235A, N297A, name in Kabat numbering)
heavy: B1 heavy with G31H
chain: B1 chain
light: B1 light
notes: one-arm antibody
B3: CE115HA000 H chain altered form N31I (antibody, human IgG1, kappa, L234A L235A, N297A, name in Kabat numbering)
heavy: B1 heavy with G31I
chain: B1 chain
light: B1 light
notes: one-arm antibody
B4: CE115HA000 H chain altered form N31K (antibody, human IgG1, kappa, L234A L235A, N297A, name in Kabat numbering)
heavy: B1 heavy with G31K
chain: B1 chain
light: B1 light
notes: one-arm antibody
B5: CE115HA000 H chain altered form N31Q (antibody, human IgG1, kappa, L234A L235A, N297A, name in Kabat numbering)
heavy: B1 heavy with G31Q
chain: B1 chain
light: B1 light
notes: one-arm antibody
B6: CE115HA000 H chain altered form N31R (antibody, human IgG1, kappa, L234A L235A, N297A, name in Kabat numbering)
heavy: B1 heavy with G31R
chain: B1 chain
light: B1 light
notes: one-arm antibody
B7: CE115HA000 H chain altered form N31S (antibody, human IgG1, kappa, L234A L235A, N297A, name in Kabat numbering)
heavy: B1 heavy with G31S
chain: B1 chain
light: B1 light
notes: one-arm antibody
B8: CE115HA000 H chain altered form N31W (antibody, human IgG1, kappa, L234A L235A, N297A, name in Kabat numbering)
heavy: B1 heavy with G31W
chain: B1 chain
light: B1 light
notes: one-arm antibody
B9: CE115HA000 H chain altered form N31Y (antibody, human IgG1, kappa, L234A L235A, N297A, name in Kabat numbering)
heavy: B1 heavy with G31Y
chain: B1 chain
light: B1 light
notes: one-arm antibody
B10: CE115HA000 H chain altered form N53A (antibody, human IgG1, kappa, L234A L235A, N297A, name in Kabat numbering)
heavy: B1 heavy with G31N, N56A
chain: B1 chain
light: B1 light
notes: one-arm antibody
B11: CE115HA000 H chain altered form N53D (antibody, human IgG1, kappa, L234A L235A, N297A, name in Kabat numbering)
heavy: B1 heavy with G31N, N56D
chain: B1 chain
light: B1 light
notes: one-arm antibody
B12: CE115HA000 H chain altered form N53G (antibody, human IgG1, kappa, L234A L235A, N297A, name in Kabat numbering)
heavy: B1 heavy with G31N, N56G
chain: B1 chain
light: B1 light
notes: one-arm antibody
B13: CE115HA000 H chain altered form N53H (antibody, human IgG1, kappa, L234A L235A, N297A, name in Kabat numbering)
heavy: B1 heavy with G31N, N56H
chain: B1 chain
light: B1 light
notes: one-arm antibody
B14: CE115HA000 H chain altered form N53I (antibody, human IgG1, kappa, L234A L235A, N297A, name in Kabat numbering)
heavy: B1 heavy with G31N, N56I
chain: B1 chain
light: B1 light
notes: one-arm antibody
B15: CE115HA000 H chain altered form N53K (antibody, human IgG1, kappa, L234A L235A, N297A, name in Kabat numbering)
heavy: B1 heavy with G31N, N56K
chain: B1 chain
light: B1 light
notes: one-arm antibody
B16: CE115HA000 H chain altered form N53Q (antibody, human IgG1, kappa, L234A L235A, N297A, name in Kabat numbering)
heavy: B1 heavy with G31N, N56Q
chain: B1 chain
light: B1 light
notes: one-arm antibody
B17: CE115HA000 H chain altered form N53S (antibody, human IgG1, kappa, L234A L235A, N297A, name in Kabat numbering)
heavy: B1 heavy with G31N, N56S
chain: B1 chain
light: B1 light
notes: one-arm antibody
B18: CE115HA000 H chain altered form N53W (antibody, human IgG1, kappa, L234A L235A, N297A, name in Kabat numbering)
heavy: B1 heavy with G31N, N56W
chain: B1 chain
light: B1 light
notes: one-arm antibody
B19: CE115HA000 H chain altered form N53Y (antibody, human IgG1, kappa, L234A L235A, N297A, name in Kabat numbering)
heavy: B1 heavy with G31N, N56Y
chain: B1 chain
light: B1 light
notes: one-arm antibody
B20: CE115HA000 H chain altered form N54A (antibody, human IgG1, kappa, L234A L235A, N297A, name in Kabat numbering)
heavy: B1 heavy with G31N, N57A
chain: B1 chain
light: B1 light
notes: one-arm antibody
B21: CE115HA000 H chain altered form N54D (antibody, human IgG1, kappa, L234A L235A, N297A, name in Kabat numbering)
heavy: B1 heavy with G31N, N57D
chain: B1 chain
light: B1 light
notes: one-arm antibody
B22: CE115HA000 H chain altered form N54F (antibody, human IgG1, kappa, L234A L235A, N297A, name in Kabat numbering)
heavy: B1 heavy with G31N, N57F
chain: B1 chain
light: B1 light
notes: one-arm antibody
B23: CE115HA000 H chain altered form N54G (antibody, human IgG1, kappa, L234A L235A, N297A, name in Kabat numbering)
heavy: B1 heavy with G31N, N57G
chain: B1 chain
light: B1 light
notes: one-arm antibody
B24: CE115HA000 H chain altered form N54K (antibody, human IgG1, kappa, L234A L235A, N297A, name in Kabat numbering)
heavy: B1 heavy with G31N, N57K
chain: B1 chain
light: B1 light
notes: one-arm antibody
B25: CE115HA000 H chain altered form N54L (antibody, human IgG1, kappa, L234A L235A, N297A, name in Kabat numbering)
heavy: B1 heavy with G31N, N57L
chain: B1 chain
light: B1 light
notes: one-arm antibody
B26: CE115HA000 H chain altered form N54Q (antibody, human IgG1, kappa, L234A L235A, N297A, name in Kabat numbering)
heavy: B1 heavy with G31N, N57Q
chain: B1 chain
light: B1 light
notes: one-arm antibody
B27: CE115HA000 H chain altered form N54S (antibody, human IgG1, kappa, L234A L235A, N297A, name in Kabat numbering)
heavy: B1 heavy with G31N, N57S
chain: B1 chain
light: B1 light
notes: one-arm antibody
B28: CE115HA000 H chain altered form N54Y (antibody, human IgG1, kappa, L234A L235A, N297A, name in Kabat numbering)
heavy: B1 heavy with G31N, N57Y
chain: B1 chain
light: B1 light
notes: one-arm antibody
B29: CE115HA000 H chain altered form Q50A (antibody, human IgG1, kappa, L234A L235A, N297A, name in Kabat numbering)
heavy: B1 heavy with G31N, Q50A
chain: B1 chain
light: B1 light
notes: one-arm antibody
B30: CE115HA000 H chain altered form Q50D (antibody, human IgG1, kappa, L234A L235A, N297A, name in Kabat numbering)
heavy: B1 heavy with G31N, Q50D
chain: B1 chain
light: B1 light
notes: one-arm antibody
B31: CE115HA000 H chain altered form Q50E (antibody, human IgG1, kappa, L234A L235A, N297A, name in Kabat numbering)
heavy: B1 heavy with G31N, Q50E
chain: B1 chain
light: B1 light
notes: one-arm antibody
B32: CE115HA000 H chain altered form Q50I (antibody, human IgG1, kappa, L234A L235A, N297A, name in Kabat numbering)
heavy: B1 heavy with G31N, Q50I
chain: B1 chain
light: B1 light
notes: one-arm antibody
B33: CE115HA000 H chain altered form Q50K (antibody, human IgG1, kappa, L234A L235A, N297A, name in Kabat numbering)
heavy: B1 heavy with G31N, Q50K
chain: B1 chain
light: B1 light
notes: one-arm antibody

These binders were tested against T1, CD3 epsilon homodimer protein (UniProt P07766 23-126) (assay: SPR Biacore T200, CD3 epsilon homodimer on chip, antibody as analyte;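 note: homodimer amine-coupled to a CM4 sensor chip, run at 25 °C in HBS-EP+ buffer, with kinetic parameters derived in Biacore T200 Evaluation Software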).
T1 construct: also called CD3 (CD3 epsilon)
T1 sequence (P07766 23-126): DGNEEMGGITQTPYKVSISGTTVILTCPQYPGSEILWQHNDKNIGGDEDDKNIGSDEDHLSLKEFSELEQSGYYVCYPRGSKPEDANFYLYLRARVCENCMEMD

In order of rising “KD ratio (KD of CE115HA000 / KD of altered form)” value:
1. B10  0.55
2. B11  0.55
3. B13  0.55
4. B14  0.57
5. B27  0.57
6. B20  0.58
7. B17  0.59
8. B21  0.59
9. B3  0.62
10. B7  0.67
11. B18  0.69
12. B33  0.71
13. B15  0.79
14. B26  0.8
15. B24  0.82
16. B23  0.84
17. B25  0.91
18. B5  0.94
19. B19  0.94
20. B12  0.95
21. B2  0.96
22. B4  0.97
23. B22  0.97
24. B6  0.98
25. B28  1.03
26. B16  1.05
27. B8  1.07
28. B9  1.1
29. B32  1.21
30. B1  1.37
31. B29  22.6
32. B30  75.4
33. B31  16700
